For one data set, the target named is Hs-laforin-HIS6 (human) (UniProt O95278). Put plainly: SEC; Ni-NTA-purified Hs-laforin-HIS6 on HiLoad 16/60 Superdex 75; two peaks, A (dimer) and B (monomer).
The target of data set [1] is Cm-laforin-HIS6 (Cyanidioschyzon merolae). Nature of the data set: SEC; SEX4-HIS6 on Superdex-75 and Cm-laforin-HIS6 on Superdex-200 after Ni-NTA; multiple peaks. For orientation: In gel filtration, larger molecules generally elute earlier.
Data set [2] concerns the molecule itself. The description is as above.

As a reminder, the stoichiometry N is a count of units in the complex or per binding partner. The molecule “Hs-laforin-HIS6 (from UniProt O95278 1-331) (enzyme)” showed a stoichiometry N in the data set with Hs-laforin-HIS6 (human) of 2.
Consider Cm-laforin-HIS6 (enzyme), for which the stoichiometry N in data set [1] came to 2.

B1: At-SEX4-HIS6(Δ81) (enzyme, Arabidopsis thaliana, UniProt Q9FEB5 82-379, looked up)
chain: QAMGAVLTYRHELGMNYNFIRPDLIVGSCLQTPEDVDKLRKIGVKTIFCLQQDPDLEYFGVDISSIQAYAKKYSDIQHIRCEIRDFDAFDLRMRLPAVVGTLYKAVKRNGGVTYVHCTAGMGRAPAVALTYMFWVQGYKLMEAHKLLMSKRSCFPKLDAIRNATIDILTGLKRKTVTLTLKDKGFSRVEISGLDIGWGQRIPLTLDKGTGFWILKRELPEGQFEYKYIIDGEWTHNEAEPFIGPNKDGHTNNYAKVVDDPTSVDGTTRERLSSEDPELLEEERSKLIQFLETCSEAEV
notes: SEX4 (Starch EXcess4), Arabidopsis thaliana glucan phosphatase; construct pET21a At-SEX4-HIS6(Δ81), printed as a 32 kDa protein; Δ81 read as lacking the first 81 residues; also called Starch EXcess4; source: bacteria (E. coli), purified (Ni-NTA, Superdex-75)
On to B1, for which the “stoichiometry N” value in data set [2] is 2.

Source of the values: paper PMC3162602, “Laforin, a Dual Specificity Phosphatase Involved in Lafora Disease, Is Present Mainly as Monomeric Form with Full Phosphatase Activity” (PLoS ONE, 2011).
